Measured values published in doi:10.1101/2019.12.19.882373.

Experiments:
Experiment in all cases: FRET or BRET
[1] = target: CipA cohesin 1 module (c1A) (C. thermocellum) (UniProt Q06851)
[2] = target: CipA cohesin 2 module (c2A), G144C, labelled with Cy3B (C. thermocellum)
[3] = target: CipA cohesin 7 module (c7A) (C. thermocellum) (UniProt Q06851)
[4] = target: cohesin 1 from scaffoldin CipC (c1C) (C. cellulolyticum)
[5] = target: cohesin module 7 of scaffoldin CipC (c7C) (C. cellulolyticum)

| Substance | fraction of complexes in binding mode B1 [1] | fraction of complexes in binding mode B1 [2] | fraction of complexes in binding mode B1 [3] | fraction of complexes in binding mode B1 [4] | fraction of complexes in binding mode B1 [5] | fraction of complexes in binding mode B1 (cyclophilin-treated) [2] |
| --- | --- | --- | --- | --- | --- | --- |
| swapped version of dockerin celS (celS_Swap), helices H1 and H3 exchanged (domain or fragment) | 0.59 | 0.89 | 0.69 |  |  |  |
| dockerin from cellulase A (CelA) (domain or fragment) |  | 0.37 | 0.48 |  |  |  |
| dockerin CelS (type-I dockerin module of cellulase S), D63C, labelled with Alexa Fluor 647 (domain or fragment) |  | 0.43 | 0.58 |  |  |  |

Next, values leading:

| fraction of complexes in binding mode B1 [1] | fraction of complexes in binding mode B1 [2] | fraction of complexes in binding mode B1 [3] | fraction of complexes in binding mode B1 [4] | fraction of complexes in binding mode B1 [5] | fraction of complexes in binding mode B1 (cyclophilin-treated) [2] | Substance |
| --- | --- | --- | --- | --- | --- | --- |
|  |  |  | 0.26 | 0.45 |  | dockerin from the cellulase 5A of C. cellulolyticum (CcCel5A) (domain or fragment) |
|  | 0.42 |  |  |  | 0.2 | dockerin celS single residue clasp mutant Y5A (celS_Y5A) (domain or fragment) |
